Experimental data from PMC6795539 (Nature medicine, 2019).
Where two headings read alike, the source gives them in different places.

B1: NZM-mFc, variant of NZM in which the human Fc was replaced with the murine counterpart (antibody, V domains shown)
VH: QVQLVQSGAEVKKPGASVKVSCKASGFNIKDTYIHWVRQAPGQRLEWMGRIDPANGYTKYDPKFQGRVTITADTSASTAYMELSSLRSEDTAVYYCAREGYYGNYGVYAMDYWGQGTLVTVSS
VL: DIQMTQSPSSLSASVGDRVTITCKTSQDINKYMAWYQQTPGKAPRLLIHYTSALQPGIPSRFSGSGSGRDYTFTISSLQPEDIATYYCLQYDNLWTFGQGTKVEIK
B2: Natalizumab (NZM), humanized monoclonal IgG4 antibody to α4 integrins (antibody, V domains shown)
VH: QVQLVQSGAEVKKPGASVKVSCKASGFNIKDTYIHWVRQAPGQRLEWMGRIDPANGYTKYDPKFQGRVTITADTSASTAYMELSSLRSEDTAVYYCAREGYYGNYGVYAMDYWGQGTLVTVSS
VL: DIQMTQSPSSLSASVGDRVTITCKTSQDINKYMAWYQQTPGKAPRLLIHYTSALQPGIPSRFSGSGSGRDYTFTISSLQPEDIATYYCLQYDNLWTFGQGTKVEIK
B3: NZM variant var1 (light chain CDR2 modified), full human IgG4 (antibody, V domains shown)
VH: QVQLVQSGAEVKKPGASVKVSCKASGFNIKDTYIHWVRQAPGQRLEWMGRIDPANGYTKYDPKFQGRVTITADTSASTAYMELSSLRSEDTAVYYCAREGYYGNYGVYAMDYWGQGTLVTVSS
VL: DIQMTQSPSSLSASVGDRVTITCKTSQDINKYMAWYQQTPGKAPRLLIHYTKGNQPGIPSRFSGSGSGRDYTFTISSLQPEDIATYYCLQYDNLWTFGQGTKVEIK
B4: NZM variant var3 (light chain CDR2 modified), full human IgG4 (antibody, V domains shown)
VH: QVQLVQSGAEVKKPGASVKVSCKASGFNIKDTYIHWVRQAPGQRLEWMGRIDPANGYTKYDPKFQGRVTITADTSASTAYMELSSLRSEDTAVYYCAREGYYGNYGVYAMDYWGQGTLVTVSS
VL: DIQMTQSPSSLSASVGDRVTITCKTSQDINKYMAWYQQTPGKAPRLLIHYTKSNQPGIPSRFSGSGSGRDYTFTISSLQPEDIATYYCLQYDNLWTFGQGTKVEIK
B5: NZM variant var2 (light chain CDR2 modified), full human IgG4 (antibody, V domains shown)
VH: QVQLVQSGAEVKKPGASVKVSCKASGFNIKDTYIHWVRQAPGQRLEWMGRIDPANGYTKYDPKFQGRVTITADTSASTAYMELSSLRSEDTAVYYCAREGYYGNYGVYAMDYWGQGTLVTVSS
VL: DIQMTQSPSSLSASVGDRVTITCKTSQDINKYMAWYQQTPGKAPRLLIHYTKGNQSGIPSRFSGSGSGRDYTFTISSLQPEDIATYYCLQYDNLWTFGQGTKVEIK
B6: NZM variant var4 (light chain CDR2 modified), full human IgG4 (antibody, V domains shown)
VH: QVQLVQSGAEVKKPGASVKVSCKASGFNIKDTYIHWVRQAPGQRLEWMGRIDPANGYTKYDPKFQGRVTITADTSASTAYMELSSLRSEDTAVYYCAREGYYGNYGVYAMDYWGQGTLVTVSS
VL: DIQMTQSPSSLSASVGDRVTITCKTSQDINKYMAWYQQTPGKAPRLLIHYTKSNQSGIPSRFSGSGSGRDYTFTISSLQPEDIATYYCLQYDNLWTFGQGTKVEIK

How the values were obtained:
[1] = target: T1, α4 integrin on the surface of T cells (Homo sapiens, UniProt P13612); test: flow cytometry on cells
[2] = target: T1, α4 integrin on the surface of T cells; test: flow cytometry on cells; remark: listed apart in the source

Binder	binding result [1]	binding result [2]
B1	binds	
B2		binds
B3		binds
B4		binds
B5		binds
B6		binds
